Experiments:
MBD2sc [1] = molecular target: T1, MBD2sc (human, UniProt Q9UBB5 150-393+Q86YP4:137-178, internal_change); assay: fluorescence anisotropy; FA: 50 mM Hepes pH 7.5, 100 mM NaCl, 1 mM MgCl2, 10 nM DNA, temperature not stated; SPR: 50 mM Hepes pH 7.5, 150 mM NaCl, 1 mM MgCl2, 1 mM TCEP, 0.05% Tween-20; NMR: 10 mM NaPO4 pH 6.5, 150 mM NaCl, 1 mM DTT, 10% 2H2O, 25 C; conditions: protein: recombinant; tags: N-terminal thioredoxin-His6-TEV site (removal stated only for NMR); label: 5' 6-FAM on strand 1; blunt
MBD3sc [2] = molecular target: T2, MBD3sc (human, UniProt O95983 1-249+Q86YP4:137-178, internal_change); assay: as above; conditions: protein: recombinant; tags: N-terminal thioredoxin-His6-TEV site (removal stated only for NMR); label: 5' 6-FAM on strand 1; blunt
MBD2sc [3] = molecular target: T1, MBD2sc; assay: SPR; FA: 50 mM Hepes pH 7.5, 100 mM NaCl, 1 mM MgCl2, 10 nM DNA, temperature not stated; SPR: 50 mM Hepes pH 7.5, 150 mM NaCl, 1 mM MgCl2, 1 mM TCEP, 0.05% Tween-20; NMR: 10 mM NaPO4 pH 6.5, 150 mM NaCl, 1 mM DTT, 10% 2H2O, 25 C; conditions: protein: recombinant; tags: N-terminal thioredoxin-His6-TEV site (removal stated only for NMR); blunt
MBD3sc [4] = molecular target: T2, MBD3sc; assay: as above; conditions: protein: recombinant; tags: N-terminal thioredoxin-His6-TEV site (removal stated only for NMR); blunt
[5] = molecular target: T3, MBD2sc (2H,15N, tag cleaved) (human, UniProt Q9UBB5 150-393+Q86YP4:137-178, internal_change); assay: NMR; FA: 50 mM Hepes pH 7.5, 100 mM NaCl, 1 mM MgCl2, 10 nM DNA, temperature not stated; SPR: 50 mM Hepes pH 7.5, 150 mM NaCl, 1 mM MgCl2, 1 mM TCEP, 0.05% Tween-20; NMR: 10 mM NaPO4 pH 6.5, 150 mM NaCl, 1 mM DTT, 10% 2H2O, 25 C; conditions: protein: recombinant; tags: none (thioredoxin-His6 removed by TEV); blunt
[6] = molecular target: T3, MBD2sc (2H,15N, tag cleaved); assay: NMR; fast exchange between both sites; FA: 50 mM Hepes pH 7.5, 100 mM NaCl, 1 mM MgCl2, 10 nM DNA, temperature not stated; SPR: 50 mM Hepes pH 7.5, 150 mM NaCl, 1 mM MgCl2, 1 mM TCEP, 0.05% Tween-20; NMR: 10 mM NaPO4 pH 6.5, 150 mM NaCl, 1 mM DTT, 10% 2H2O, 25 C; conditions: protein: recombinant; tags: none (thioredoxin-His6 removed by TEV); blunt

T3 sequence (Q9UBB5 other isoform, or with tags, fused parts or gaps): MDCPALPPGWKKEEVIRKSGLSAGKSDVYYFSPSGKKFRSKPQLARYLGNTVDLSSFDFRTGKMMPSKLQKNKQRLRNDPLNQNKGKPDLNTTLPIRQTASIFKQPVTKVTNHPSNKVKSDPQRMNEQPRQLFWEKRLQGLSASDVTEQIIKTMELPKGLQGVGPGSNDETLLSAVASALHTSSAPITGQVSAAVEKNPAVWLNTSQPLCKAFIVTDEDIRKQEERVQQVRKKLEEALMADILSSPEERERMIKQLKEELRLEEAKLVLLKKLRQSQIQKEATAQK
T1 sequence (Q9UBB5 other isoform, or with tags, fused parts or gaps): as above
T2 sequence (O95983 other isoform, or with tags, fused parts or gaps): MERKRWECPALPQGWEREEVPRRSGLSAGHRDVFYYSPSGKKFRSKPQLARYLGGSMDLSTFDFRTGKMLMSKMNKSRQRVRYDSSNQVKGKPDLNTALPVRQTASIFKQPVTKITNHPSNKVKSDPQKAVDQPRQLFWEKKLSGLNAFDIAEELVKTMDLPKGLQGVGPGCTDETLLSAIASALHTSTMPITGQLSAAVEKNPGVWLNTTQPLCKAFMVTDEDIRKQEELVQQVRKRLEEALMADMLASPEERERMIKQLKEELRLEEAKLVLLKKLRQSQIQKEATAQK

B1: 17 bp CpG-free FAM (dsDNA)
DNA 1: CTGGCCCCAGGGCCCTC
DNA 2: GAGGGCCCTGGGGCCAG
MBD2sc [1]
  Kd: 9100 ± 400 nM
MBD3sc [2]
  Kd: 14200 ± 300 nM

B2: 17 bp CpG FAM (unmethylated) (dsDNA)
DNA 1: CTGCCGCCGAGCGCCTC
DNA 2: GAGGCGCTCGGCGGCAG
MBD2sc [1]
  Kd: 2800 ± 100 nM
MBD3sc [2]
  Kd: 8100 ± 400 nM

B3: 17 bp mCpG biotin (SPR) (dsDNA)
DNA 1: CTGCCGCCGAGCGCCTC
DNA 2: GAGGCGCTCGGCGGCAG
modifications: 5-methylcytosine at C8 of strand 1 and C9 of strand 2
MBD2sc [3]
  Kd: 11 ± 1 nM
MBD3sc [4]
  Kd: 1200 ± 200 nM

B4: 38 bp, first CpG methylated (dsDNA)
DNA 1: GGAGGCGCTCGGCGGCAGCCTGGAACGGAATTCTTCTA
DNA 2: TAGAAGAATTCCGTTCCAGGCTGCCGCCGAGCGCCTCC
modifications: 5-methylcytosine at C10 of strand 1 and C28 of strand 2
[5]
  binding result: binds

B5: 38 bp, both CpG methylated (dsDNA)
DNA 1: GGAGGCGCTCGGCGGCAGCCTGGAACGGAATTCTTCTA
DNA 2: TAGAAGAATTCCGTTCCAGGCTGCCGCCGAGCGCCTCC
modifications: 5-methylcytosine at C10, C26 of strand 1 and C12, C28 of strand 2
[6]
  binding result: binds

B6: 38 bp, second CpG methylated (dsDNA)
DNA 1: GGAGGCGCTCGGCGGCAGCCTGGAACGGAATTCTTCTA
DNA 2: TAGAAGAATTCCGTTCCAGGCTGCCGCCGAGCGCCTCC
modifications: 5-methylcytosine at C26 of strand 1 and C12 of strand 2
[5]
  binding result: binds

B7: 17 bp CpG biotin (SPR) (dsDNA)
DNA 1: CTGCCGCCGAGCGCCTC
DNA 2: GAGGCGCTCGGCGGCAG
MBD2sc [3]
  Kd: 1240 ± 80 nM
MBD3sc [4]
  Kd: 1020 ± 10 nM

B8: 17 bp mCpG FAM (dsDNA)
DNA 1: CTGCCGCCGAGCGCCTC
DNA 2: GAGGCGCTCGGCGGCAG
modifications: 5-methylcytosine at C8 of strand 1 and C9 of strand 2 (symmetric)
MBD2sc [1]
  Kd: 7 ± 2 nM
MBD3sc [2]
  Kd: 5900 ± 400 nM

From paper PMC9520026, “Densely methylated DNA traps Methyl-CpG–binding domain protein 2 but permits free diffusion by Methyl-CpG–binding domain protein 3”
